Measurements taken from paper PMC4423566 (Nature communications, 2015).
Where two headings read alike, the source gives them in different places. One block for each molecule: values may come before it. Square brackets hold non-standard residues; d marks the D form. Peptide text beside a SMILES is read from it. * marks the point of attachment. X1 = CC(=O)N[C@@H]1[C@@H](O[C@@H]2O[C@H](CO)[C@H](O)[C@H](O)[C@H]2O)[C@@H](O)[C@@H](CO[C@@H]2O[C@H](CO)[C@@H](O[C@@H]3O[C@H](CO)[C@H](O)[C@H](O[C@]4(C(=O)O)C[C@H](O)[C@@H](NC(C)=O)[C@H]([C@H](O)[C@H](O)CO)O4)[C@H]3O)[C@H](O[C@@H]3O[C@@H](C)[C@@H](O)[C@@H](O)[C@@H]3O)[C@H]2NC(C)=O)O[C@@H]1*; sY = N[C@@H](Cc1ccc(OS(=O)(=O)O)cc1)C(=O)O; Mca = COc1ccc2c(CC(=O)*)cc(=O)oc2c1

Columns and labels:
P-selectin [1] = test: Microarray binding of glycopeptide mimics to selectin-Ig chimeras; set-up: species or system human and mouse; details: selectin-Ig chimeras 5-20 μg/mL, Alexa-488 anti-human IgG
[2] = Temperature- and pH-dependent stability by RP-HPLC; assay type: physicochemical; details: pH 5, T = 37°C
P-selectin [3] = details: read-out: IC50 against P-selectin; cited from earlier work
E-selectin = details: cited from earlier work
L-selectin = details: cited from earlier work
[4] = target: recombinant human P-selectin Fc chimera (human) (UniProt P16109); test: flow cytometry on cells
[5] = target: recombinant mouse P-selectin Fc chimera (mouse) (UniProt Q01102); test: flow cytometry on cells
[6] = target: recombinant human P-selectin Fc chimera (human) (UniProt P16109); test: flow cytometry on cells; remark: listed apart in the source
[7] = target: recombinant mouse L-selectin Fc chimera (mouse) (UniProt P18337); test: flow cytometry on cells
[8] = target: recombinant mouse P-selectin Fc chimera (mouse) (UniProt Q01102); test: flow cytometry on cells; remark: listed apart in the source
human P-selectin = human P-selectin (Homo sapiens, UniProt P16109); details: cited from earlier work
GSnP-6 = test: SPR

recombinant mouse L-selectin Fc chimera (mouse), sequence (P18337 39-332, change not shown): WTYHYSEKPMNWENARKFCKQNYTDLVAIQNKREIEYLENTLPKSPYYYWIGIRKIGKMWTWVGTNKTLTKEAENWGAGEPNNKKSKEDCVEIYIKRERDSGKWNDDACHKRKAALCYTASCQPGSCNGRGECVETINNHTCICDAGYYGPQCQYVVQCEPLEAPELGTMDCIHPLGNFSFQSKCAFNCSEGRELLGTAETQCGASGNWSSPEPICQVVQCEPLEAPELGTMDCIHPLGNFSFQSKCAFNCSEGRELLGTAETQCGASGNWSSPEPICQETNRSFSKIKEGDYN

Molecule: COc1ccc2c(CC(=O)NCCCC[C@H](N)C(=O)N[C@@H](CCC(=O)O)C(=O)N[C@@H](Cc3ccc(OS(=O)(=O)O)cc3)C(=O)N[C@@H](CCC(=O)O)C(=O)N[C@@H](Cc3ccc(OS(=O)(=O)O)cc3)C(=O)N[C@@H](CC(C)C)C(=O)N[C@@H](CC(=O)O)C(=O)N[C@@H](Cc3ccc(OS(=O)(=O)O)cc3)C(=O)N[C@@H](CC(=O)O)C(=O)N[C@@H](Cc3ccccc3)C(=O)N[C@@H](CC(C)C)C(=O)N3CCC[C@H]3C(=O)N[C@@H](CCC(=O)O)C(=O)N[C@H](C(=O)N[C@@H](CCC(=O)O)C(=O)N3CCC[C@H]3C(=O)N[C@@H](CC(C)C)C(=O)O)[C@@H](C)O[C@H]3O[C@H](CO[C@@H]4O[C@H](CO)[C@@H](O[C@@H]5O[C@H](CO)[C@H](O)[C@H](O[C@]6(C(=O)O)C[C@H](O)[C@@H](NC(C)=O)[C@H]([C@H](O)[C@H](O)CO)O6)[C@H]5O)[C@H](O[C@@H]5O[C@@H](C)[C@@H](O)[C@@H](O)[C@@H]5O)[C@H]4NC(C)=O)[C@H](O)[C@H](O[C@@H]4O[C@H](CO)[C@H](O)[C@H](O)[C@H]4O)[C@H]3NC(C)=O)cc(=O)oc2c1 [GSP-6] (H-K(Mca)E[sY]E[sY]LD[sY]DFLPET(X1)EPL-OH)
microarray binding to P-selectin (in words) (P-selectin [1]): bound to P-selectin more strongly than to E- or L-selectin | stability at low pH [2]: rapidly degraded

Molecule: O=C(O)Cc1cccc(-c2cc(CCCCCCc3ccc(O[C@H]4O[C@H](CO)[C@@H](O)[C@H](O)[C@@H]4O)c(-c4cccc(CC(=O)O)c4)c3)ccc2O[C@H]2O[C@H](CO)[C@@H](O)[C@H](O)[C@@H]2O)c1 [bimosiamose, reference compound]
IC50 (P-selectin [3]): 70 µM | IC50 (E-selectin; read-out: IC50 against E-selectin): […] | IC50 (L-selectin; read-out: IC50 against L-selectin): […]

IC50 [4]: 20 µM | IC50 [5]: 28 µM | IC50 [6]: 14 µM | IC50 [7]: 30 µM | IC50 [8]: 19 µM
Molecule: GSnP-6 (peptide)

Molecule: PSGL-1 (from UniProt Q14242)
Kd (human P-selectin): 0.073 µM

Kd (GSnP-6): 0.022 µM
Molecule: recombinant human P-selectin Fc chimera (from UniProt P16109 42-771) (Fc fusion)

B1: P-selectin-glycoprotein-ligand-1 (protein, UniProt Q14242 42-412, looked up)
P-selectin glycoprotein …: QATEYEYLDYDFLPETEPPEMLRNSTDTTPLTGPGTPESTTVEPAARRSTGLDAGGAVTELTTELANMGNLSTDSAAMEIQTTQPAATEAQTTQPVPTEAQTTPLAATEAQTTRLTATEAQTTPLAATEAQTTPPAATEAQTTQPTGLEAQTTAPAAMEAQTTAPAAMEAQTTPPAAMEAQTTQTTAMEAQTTAPEATEAQTTQPTATEAQTTPLAAMEALSTEPSATEALSMEPTTKRGLFIPFSVSSVTHKGIPMAASNLSVNYPVGAPDHISVKQCLLAILILALVATIFFVCTVVLAVRLSRKGHMYPVRNYSPTEMVCISSLLPDGGEGPSATANGGLSKAKSPGLTPEPREDREGDDLTLHSFLP
Kd (E-selectin; read-out: Kd of PSGL-1 binding to E-selectin): 2 to 5 µM | Kd (L-selectin; read-out: Kd of PSGL-1 binding to L-selectin): 2 to 5 µM

fold lower affinity than P-Sel-Ig (GSnP-6): 25 fold
B2: E-sel-Ig (Biacore assay, species not stated) (Fc fusion)
chain: WSYNTSTEAMTYDEASAYCQQRYTHLVAIQNKEEIEYLNSILSYSPSYYWIGIRKVNNVWVWVGTQKPLTEEAKNWAPGEPNNRQKDEDCVEIYIKREKDVGMWNDERCSKKKLALCYTAACTNTSCSGHGECVETINNYTCKCDPGFSGLKCEQIVNCTALESPEHGSLVCSHPLGNFSYNSSCSISCDRGYLPSSMETMQCMSSGEWSAPIPACNVVECDAVTNPANGFVECFQNPGSFPWNTTCTFDCEEGFELMGAQSLQCTSSGNWDNEKPTCKAVTCRAVRQPQNGSVRCSHSPAGEFTFKSSCNFTCEEGFMLQGPAQVECTTQGQWTQQIPVCEAFQCTALSNPERGYMNCLPSASGSFRYGSSCEFSCEQGFVLKGSKRLQCGPTGEWDNEKPTCEAVRCDAVHQPPKGLVRCAHSPIGEFTYKSSCAFSCEEGFELHGSTQLECTSQGQWTEEVPSCQVVKCSSLAVPGKINMSCSGEPVFGTVCKFACPEGWTLNGSAARTCGATGHWSGLLPTCEAPTESNIP

fold lower affinity than P-Sel-Ig (GSnP-6): 25 fold
B3: L-sel-Ig (Biacore assay, species not stated) (Fc fusion)
chain: WTYHYSEKPMNWQRARRFCRDNYTDLVAIQNKAEIEYLEKTLPFSRSYYWIGIRKIGGIWTWVGTNKSLTEEAENWGDGEPNNKKNKEDCVEIYIKRNKDAGKWNDDACHKLKAALCYTASCQPWSCSGHGECVEIINNYTCNCDVGYYGPQCQFVIQCEPLEAPELGTMDCTHPLGNFSFSSQCAFSCSEGTNLTGIEETTCGPFGNWSSPEPTCQVIQCEPLSAPDLGIMNCSHPLASFSFTSACTFICSEGTELIGKKKTICESSGIWSNPSPICQKLDKSFSMIKEGDYN

fold change of Kd against human P-selectin (GSnP-6): 9 fold
B4: recombinant mouse P-selectin Fc chimera (Fc fusion)
chain: WTYNYSTKAYSWNNSRVFCRRHFTDLVAIQNKNEIAHLNDVIPFFNSYYWIGIRKINNKWTWVGTNKTLTEEAENWADNEPNNKKNNQDCVEIYIKSNSAPGKWNDEPCFKRKRALCYTASCQDMSCSNQGECIETIGSYTCSCYPGFYGPECEYVKECGKVNIPQHVLMNCSHPLGEFSFNSQCTFSCAEGYELDGPGELQCLASGIWTNNPPKCDAVQCQSLEAPPHGTMACMHPIAAFAYDSSCKFECQPGYRARGSNTLHCTGSGQWSEPLPTCEAIACEPPEIPIHGSMDCVPSTGTFGYNSSCTFLCAEGFVLKGNDAIQCADSGQWTAPAPFCEALQCPEFPVPSKAQVNCSDPFGTLTYQSVCSFSCDEGSLLVGASVIRCLATGHWNGAPPECQAVSCAPMLSPENGSMTCVQPLGNSTYKSTCQFMCDEGFYLSGPERLDCSPSGHWTGTPPTCEAIKCPGIFAPEQGNLDCSHVHGEFGVGSICHFSCNEDFELLGSENVECTVSGRWSAPPPTCKGITSLPAPAVRCPALTTPGQGTMSCQHHLGSFGPNTTCYFGCKTGFTLRGANSLRCRASGQWTAVTPMCRAVKCSELHMDTAVAMNCSNPWGNFSYGSTCTFQCPEGQSLNGSVRATCREDGHWSDAMPTCQAGTLTIQEA
